From US20090170194A1 (GOVERNORS OF THE UNIVERSITY OF ALBERTA, published 2009)

What was measured:
[1] = biological target: the molecule itself; assay: gel filtration chromatography with dTomato (dimer) and mCherry (monomer) as size standards (self-association)
Excerpt: (§1) FIG. 4: Characterization of mTFP1 by Gel Filtration Chromatography. Gel filtration chromatography elution profile with detection at either 450 nm or 550 nm. The upper profile is a co-injection of dTFP0.2 and mCherry (Shaner, 2004) (a red monomer), the middle profile is dTomato (Shaner, 2004) (a red dimer) and mTFP1, and the lower profile is mTFP1 alone. The small 450 nm peak at the dimer elution volume is due to the weak absorbance of dTomato at this wavelength.
(§2) The non-oligomeric structure of mTFP variants was determined by gel filtration chromatography on a HiLoad 16/60 Superdex 75 pg gel filtration column. Samples of the dimeric dTomato and the monomeric mCherry proteins (Shaner, 2004) were expressed and purified as described above and used as size standards. The AKTA basic liquid chromatography system (GE Healthcare) can monitor multiple wavelengths simultaneously. Purified TFP variants were mixed with either dTomato or mcherry and their respective elution profiles monitored separately at 450 nm and 550 nm, respectively.

[2] = biological target: the molecule itself; assay: self-association (homodimer); gel filtration chromatography (FIG. 4)
Excerpt: as §1, §2

[3] = biological target: the molecule itself; assay: gel filtration chromatography (self-association)
Description: as §2

B1: mTFP1 (other)
chain: MVSKGEETTMGVIKPDMKIKLKMEGNVNGHAFVIEGEGEGKPYDGTNTINLEVKEGAPLPFSYDILTTAFAYGNRAFTKYPDDIPNYFKQSFPEGYSWERTMTFEDKGIVKVKSDISMEEDSFIYEIHLKGENFPPNGPVMQKKTTGWDASTERMYVRDGVLKGDVKHKLLLEGGGHHRVDFKTIYRAKKAVKLPDYHFVDHRIEILNHDKDYNKVTVYESAVARNSTDGMDELYK
notes: Engineered monomeric teal fluorescent protein derived from Clavularia cFP484; Expressed from pBAD/HisB and purified on Ni-NTA; also called mTFP1.0
- binding result [1]: no binding

B2: dTFP0.2 (other)
chain: MVSKGEETTMGVIKPDMKIKLKMEGNVNGHAFVIEGEGEGKPYDGTNTVNLEVKEGAPLPFSYDILSNAFQYGNRAFTKYPDDIANYFKQSFPEGYSWERTMTFEDKGIVKVKSDISMEEDSFIYEIRLKGKNFPPNGPVMQKKTLKWEPSTEILYVRDGVLVGDISHSLLLEGGGHYRCDFKTIYKAKKVVKLPDYHFVDHRIEILNHDKDYNKVTLYENAVARYSLLPPQAGMDELYK
notes: dTFP0.1 with D81N and S226P; Vector His tag probably present; also called dTFP0.20
- binding result [2]: binds

B3: mTFP0.3 (other)
chain: MVSKGEETTMGVIKPDMKIKLKMEGNVNGHAFVIEGEGEGKPYDGTNTVNLEVKEGAPLPFSYDILSNAFQYGNRAFTKYPDDIANYFKQSFPEGYSWERTMTFEDKGIVKVKSDISMEEDSFIYEIRLKGKNFPPNGPVMQKKTLKWEPSTEILYVRDGVLVGDIKHKLLLEGGGHYRCDFKTIYKAKKVVKLPDYHFVDHRIEILNHDKDYNKVTLYENAVARYSLLPPQAGMDELYK
notes: dTFP0.2 with S162K and S164K; reported as a monomer; Substitution positions follow the DsRed-consistent numbering; Vector His tag probably present
- binding result [3]: no binding
